Results on four molecules are retold here after patent publication US20260167720A1 (Amgen, published 2026).

Sequences and labels used below:
B1: MSLN-CDH3 T-cell engager molecule 1 (scFc single chain) (bispecific antibody)
chain: QVQLVQSGAEVKKPGASVKVSCKASGYTFTNYWMNWVRQAPGQCLEWMGNIAYGVAGTNYNQKFQGRVTMTVDTSSSTAYMELSRLRSDDTAVYYCATRYFYVMDYWGQGTLVTVSSGGGGQGGGGQGGGGQEIQMTQSPSSLSASVGDRVTITCRASQDISNYLNWYQQKPGKVPKLLIYYTSRLHSGVPSRFSGSGSGTDFTLTISSLQPEDVATYYCVQYAQFPLTFGCGTKVEIKSGGGGQEVQLVESGGGLVQPGGSLKLSCAASGFTFNKYAMNWVRQAPGKGMEWVARIRSKYNNYATYYADAVKDRFTISRDDSKNTLYLQMNNLKTEDTAVYYCVRAGNFGSSYISYFAYWGQGTLVTVSSGGGGQGGGGQGGGGQQTVVTQEPSLTVSPGGTVTITCGSSTGAVTSGNYPNWIQKKPGQAPRGLIGGTKFLAPGTPARFSGSLEGGKAALTLSGVQPEDEAEYYCVLYYSNRWVFGSGTKLTVLGGGGCPPCPAPELLGGPSVFLFPPKPKDTLMISRTPEVTCVVVDVSHEEPEVKFNWYVDGVEVHNAKTKPCEEQYGSTYRCVSVLTVLHQDWLNGKEYKCKVSNKALPAPIEKTISKAKGQPREPQVYTLPPSREEMTKNQVSLTCLVKGFYPSDIAVEWESNGQPENNYKTTPPVLDSDGSFFLYSKLTVDKSRWQQGNVFSCSVMHEALHNHYTQKSLSLSPGKGGGGQGGGGQGGGGQGGGGQGGGGQGGGGQCPPCPAPELLGGPSVFLFPPKPKDTLMISRTPEVTCVVVDVSHEEPEVKFNWYVDGVEVHNAKTKPCEEQYGSTYRCVSVLTVLHQDWLNGKEYKCKVSNKALPAPIEKTISKAKGQPREPQVYTLPPSREEMTKNQVSLTCLVKGFYPSDIAVEWESNGQPENNYKTTPPVLDSDGSFFLYSKLTVDKSRWQQGNVFSCSVMHEALHNHYTQKSLSLSPGKGGGGQVQLQESGPGLVKPSETLSLTCTVSGGSISSSSYFWGWIRQPPGKCLEWIGNIYYSGSSNYNPSLKSRVTISVDTSKNQFSLKLSSVTAADTAVYYCARLPRGDRDAFDIWGQGTMVTVSSGGGGQGGGGQGGGGQEIVMTQSPSSLSASVGDRVTITCRASQGISNYLAWYQQKPGKVPKLLIYAASTLQSGVPSRFSGSGSGTDFTLTISSLQPEDFATYYCQQSYSTPFTFGCGTKVEIKSGGGGQEVQLVESGGGLVQPGGSLKLSCAASGFTFNKYAMNWVRQAPGKGMEWVARIRSKYNNYATYYADAVKDRFTISRDDSKNTLYLQMNNLKTEDTAVYYCVRAGNFGSSYISYFAYWGQGTLVTVSSGGGGQGGGGQGGGGQQTVVTQEPSLTVSPGGTVTITCGSSTGAVTSGNYPNWIQKKPGQAPRGLIGGTKFLAPGTPARFSGSLEGGKAALTLSGVQPEDEAEYYCVLYYSNRWVFGSGTKLTVL
B2: MSLN-CDH3 T-cell engager molecule 4 (example to FIG. 2B) (bispecific antibody)
chain 1: not shown
chain 2: EVQLVESGGGLVQPGGSLKLSCAASGFTFNKYAMNWVRQAPGKGMEWVARIRSKYNNYATYYADAVKDRFTISRDDSKNTLYLQMNNLKTEDTAVYYCVRAGNFGSSYISYFAYWGQGTLVTVSSGGGGQGGGGQGGGGQQTVVTQEPSLTVSPGGTVTITCGSSTGAVTSGNYPNWIQKKPGQAPRGLIGGTKFLAPGTPARFSGSLEGGKAALTLSGVQPEDEAEYYCVLYYSNRWVFGSGTKLTVLGGGGQGGGGQGGGGQDKTHTCPPCPAPELLGGPSVFLFPPKPKDTLMISRTPEVTCVVVDVSHEDPEVKFNWYVDGVEVHNAKTKPCEEQYGSTYRCVSVLTVLHQDWLNGKEYKCKVSNKALPAPIEKTISKAKGQPREPQVYTLPPSRKEMTKNQVSLTCLVKGFYPSDIAVEWESNGQPENNYKTTPPVLKSDGSFFLYSKLTVDKSRWQQGNVFSCSVMHEALHNHYTQKSLSLSPGKGGGGQGGGGQGGGGQQVQLQESGPGLVKPSETLSLTCTVSGGSISSSSYFWGWIRQPPGKCLEWIGNIYYSGSSNYNPSLKSRVTISVDTSKNQFSLKLSSVTAADTAVYYCARLPRGDRDAFDIWGQGTMVTVSSGGGGQGGGGQGGGGQEIVMTQSPSSLSASVGDRVTITCRASQGISNYLAWYQQKPGKVPKLLIYAASTLQSGVPSRFSGSGSGTDFTLTISSLQPEDFATYYCQQSYSTPFTFGCGTKVEIK
B3: MSLN-CDH3 T-cell engager molecule 2 (heteroFc multichain) (bispecific antibody)
chain 1: QVQLVQSGAEVKKPGASVKVSCKASGYTFTNYWMNWVRQAPGQCLEWMGNIAYGVAGTNYNQKFQGRVTMTVDTSSSTAYMELSRLRSDDTAVYYCATRYFYVMDYWGQGTLVTVSSGGGGQGGGGQGGGGQEIQMTQSPSSLSASVGDRVTITCRASQDISNYLNWYQQKPGKVPKLLIYYTSRLHSGVPSRFSGSGSGTDFTLTISSLQPEDVATYYCVQYAQFPLTFGCGTKVEIKSGGGGQEVQLVESGGGLVQPGGSLKLSCAASGFTFNKYAMNWVRQAPGKGMEWVARIRSKYNNYATYYADAVKDRFTISRDDSKNTLYLQMNNLKTEDTAVYYCVRAGNFGSSYISYFAYWGQGTLVTVSSGGGGQGGGGQGGGGQQTVVTQEPSLTVSPGGTVTITCGSSTGAVTSGNYPNWIQKKPGQAPRGLIGGTKFLAPGTPARFSGSLEGGKAALTLSGVQPEDEAEYYCVLYYSNRWVFGSGTKLTVLGGGGCPPCPAPELLGGPSVFLFPPKPKDTLMISRTPEVTCVVVDVSHEDPEVKFNWYVDGVEVHNAKTKPCEEQYGSTYRCVSVLTVLHQDWLNGKEYKCKVSNKALPAPIEKTISKAKGQPREPQVYTLPPSREEMTKNQVSLTCLVKGFYPSDIAVEWESNGQPENNYDTTPPVLDSDGSFFLYSDLTVDKSRWQQGNVFSCSVMHEALHNHYTQDSLSLSPGK
chain 2: CPPCPAPELLGGPSVFLFPPKPKDTLMISRTPEVTCVVVDVSHEDPEVKFNWYVDGVEVHNAKTKPCEEQYGSTYRCVSVLTVLHQDWLNGKEYKCKVSNKALPAPIEKTISKAKGQPREPQVYTLPPSRKEMTKNQVSLTCLVKGFYPSDIAVEWESNGQPENNYKTTPPVLKSDGSFFLYSKLTVDKSRWQQGNVFSCSVMHEALHNHYTQKSLSLSPGKGGGGQVQLQESGPGLVKPSETLSLTCTVSGGSISSSSYFWGWIRQPPGKCLEWIGNIYYSGSSNYNPSLKSRVTISVDTSKNQFSLKLSSVTAADTAVYYCARLPRGDRDAFDIWGQGTMVTVSSGGGGQGGGGQGGGGQEIVMTQSPSSLSASVGDRVTITCRASQGISNYLAWYQQKPGKVPKLLIYAASTLQSGVPSRFSGSGSGTDFTLTISSLQPEDFATYYCQQSYSTPFTFGCGTKVEIKSGGGGQEVQLVESGGGLVQPGGSLKLSCAASGFTFNKYAMNWVRQAPGKGMEWVARIRSKYNNYATYYADAVKDRFTISRDDSKNTLYLQMNNLKTEDTAVYYCVRAGNFGSSYISYFAYWGQGTLVTVSSGGGGQGGGGQGGGGQQTVVTQEPSLTVSPGGTVTITCGSSTGAVTSGNYPNWIQKKPGQAPRGLIGGTKFLAPGTPARFSGSLEGGKAALTLSGVQPEDEAEYYCVLYYSNRWVFGSGTKLTVL
B4: MSLN-CDH3 T-cell engager molecule 3 (example to FIG. 2A) (bispecific antibody)
chain 1: not shown
chain 2: EVQLVESGGGLVQPGGSLKLSCAASGFTFNKYAMNWVRQAPGKGMEWVARIRSKYNNYATYYADAVKDRFTISRDDSKNTLYLQMNNLKTEDTAVYYCVRAGNFGSSYISYFAYWGQGTLVTVSSGGGGQGGGGQGGGGQQTVVTQEPSLTVSPGGTVTITCGSSTGAVTSGNYPNWIQKKPGQAPRGLIGGTKFLAPGTPARFSGSLEGGKAALTLSGVQPEDEAEYYCVLYYSNRWVFGSGTKLTVLGGGGQGGGGQGGGGQDKTHTCPPCPAPELLGGPSVFLFPPKPKDTLMISRTPEVTCVVVDVSHEDPEVKFNWYVDGVEVHNAKTKPCEEQYGSTYRCVSVLTVLHQDWLNGKEYKCKVSNKALPAPIEKTISKAKGQPREPQVYTLPPSRKEMTKNQVSLTCLVKGFYPSDIAVEWESNGQPENNYKTTPPVLKSDGSFFLYSKLTVDKSRWQQGNVFSCSVMHEALHNHYTQKSLSLSPGKGGGGQGGGGQGGGGQEVQLVESGGGLVQPGGSLKLSCAASGFTFNKYAMNWVRQAPGKGMEWVARIRSKYNNYATYYADAVKDRFTISRDDSKNTLYLQMNNLKTEDTAVYYCVRAGNFGSSYISYFAYWGQGTLVTVSSGGGGQGGGGQGGGGQQTVVTQEPSLTVSPGGTVTITCGSSTGAVTSGNYPNWIQKKPGQAPRGLIGGTKFLAPGTPARFSGSLEGGKAALTLSGVQPEDEAEYYCVLYYSNRWVFGSGTKLTVL

The target of the first assay is T1, MSLN (Mesothelin) on HCT116 or GSU cells (UniProt Q13421 37-598, limits assumed). Briefly: cell-based or functional assay.
For B1, the “EC50 GSU KO CDH3 [pM]; TDCC, CDH3 knocked out, MSLN left” value (shortened to “EC50 GSU KO CDH3 [pM]; TDCC”) was 0.47 pM; the “EC50 GSU WT [pM]; TDCC, cells double positive for CDH3 and MSLN” value (“EC50 GSU WT [pM]; TDCC” for short) stood at 0.013 pM.

In the case of B2, the “EC50 GSU KO CDH3 [pM]; TDCC” value is 2.89 pM; the “EC50 GSU WT [pM]; TDCC” value is 0.098 pM.

As for B3, the “EC50 GSU KO CDH3 [pM]; TDCC” value worked out at 2.5 pM; the “EC50 GSU WT [pM]; TDCC” value was 0.039 pM.

On to B4, for which the “EC50 GSU KO CDH3 [pM]; TDCC” value was 7.5 pM; the “EC50 GSU WT [pM]; TDCC” value was 0.073 pM.

For a further assay, the target named is T2, CDH3 (Cadherin-3, P-Cadherin) on HCT116 or GSU cells (UniProt P22223 108-829, limits assumed). Briefly: cell-based or functional assay.
As to B1, the “EC50 GSU KO MSLN [pM]; TDCC, MSLN knocked out, CDH3 left” value (shortened to “EC50 GSU KO MSLN [pM]; TDCC”) amounted to 103 pM; the “EC50 GSU WT [pM]; TDCC” value came to 0.013 pM.

B2: the “EC50 GSU KO MSLN [pM]; TDCC” value stood at 36.8 pM; the “EC50 GSU WT [pM]; TDCC” value turned out to be 0.098 pM.

On to B3, for which the “EC50 GSU KO MSLN [pM]; TDCC” value was determined as 349 pM; the “EC50 GSU WT [pM]; TDCC” value was determined as 0.039 pM.

Regarding B4, the “EC50 GSU KO MSLN [pM]; TDCC” value was 55.3 pM; the “EC50 GSU WT [pM]; TDCC” value was determined as 0.073 pM.

Another assay deals with T1, MSLN (Mesothelin) on HCT116 or GSU cells. Briefly: cell-based or functional assay. The source holds these as a separate data set.
Turning to B1, the “EC50 HCT116 KO CDH3 [pM]; TDCC, CDH3 knocked out, MSLN left” value (“EC50 HCT116 KO CDH3 [pM]; TDCC” for short) turned out to be 1.76 pM; the “EC50 HCT116 WT [pM]; TDCC, cells double positive for CDH3 and MSLN” value (shortened to “EC50 HCT116 WT [pM]; TDCC”) is 0.003 pM.

Regarding B2, the “EC50 HCT116 KO CDH3 [pM]; TDCC” value was found to be 3.5 pM; the “EC50 HCT116 WT [pM]; TDCC” value is 0.027 pM.

For the molecule B3, the “EC50 HCT116 KO CDH3 [pM]; TDCC” value came out at 3.48 pM; the “EC50 HCT116 WT [pM]; TDCC” value was 0.013 pM.

Turning to B4, the “EC50 HCT116 KO CDH3 [pM]; TDCC” value was determined as 3.19 pM; the “EC50 HCT116 WT [pM]; TDCC” value is 0.005 pM.

For a further assay, the target named is T2, CDH3 (Cadherin-3, P-Cadherin) on HCT116 …. Nature of the assay: cell-based or functional assay. This is another data set of the same source.
Turning to B1, the “EC50 HCT116 KO MSLN [pM]; TDCC, MSLN knocked out, CDH3 left” value (shortened to “EC50 HCT116 KO MSLN [pM]; TDCC”) turned out to be 1.08 pM; the “EC50 HCT116 WT [pM]; TDCC” value stood at 0.003 pM.

Consider B2, for which the “EC50 HCT116 KO MSLN [pM]; TDCC” value was determined as 0.62 pM; the “EC50 HCT116 WT [pM]; TDCC” value amounted to 0.027 pM.

As for B3, the “EC50 HCT116 KO MSLN [pM]; TDCC” value was 1.77 pM; the “EC50 HCT116 WT [pM]; TDCC” value was found to be 0.013 pM.

Consider B4, for which the “EC50 HCT116 KO MSLN [pM]; TDCC” value was found to be 0.38 pM; the “EC50 HCT116 WT [pM]; TDCC” value was 0.005 pM.
